Laboratory results taken from US20230064978A1, “CYCLIC PEPTIDE RECEPTOR LANTHIONINE SYNTHETASE C-LIKE PROTEIN (LANCL) AND USES THEREOF” (LATERAL IP PTY LTD, priority 2019, published 2023).
Entries after “also recorded” stand apart in the source; their conditions may differ. Bridges are numbered along the chain shown (N, C = ends). Where no end group is shown, it is not given here.

Legend:
[1] = target: Recombinant human 6His-LaNCL1 protein (Homo sapiens, UniProt O43813); test: In-vitro photolabelling of 6His-LanCL1 and LC-MS/MS to identify binding site
Sequence of Recombinant human 6His-LaNCL1 protein (O43813 with tags, fused parts or gaps): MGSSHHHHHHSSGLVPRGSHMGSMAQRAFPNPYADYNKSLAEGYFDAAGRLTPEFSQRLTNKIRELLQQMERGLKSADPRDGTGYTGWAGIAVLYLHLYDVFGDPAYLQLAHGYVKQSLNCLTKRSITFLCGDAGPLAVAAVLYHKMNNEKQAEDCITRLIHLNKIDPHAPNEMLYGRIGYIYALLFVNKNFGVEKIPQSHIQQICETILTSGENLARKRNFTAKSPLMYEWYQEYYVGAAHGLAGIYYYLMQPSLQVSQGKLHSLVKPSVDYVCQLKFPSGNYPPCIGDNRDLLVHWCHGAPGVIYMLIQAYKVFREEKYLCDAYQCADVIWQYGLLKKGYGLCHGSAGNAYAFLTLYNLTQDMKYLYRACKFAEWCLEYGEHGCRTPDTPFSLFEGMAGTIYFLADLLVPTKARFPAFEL
Protocol: Recombinant human 6His-LaNCL1 protein (2 μM, 1 nmol, 53 μg) in 530 μL PBS was pre-incubated with 50 μM of LAT8881 or DMSO for 10 min and then treated with 25 μM LAT9991-PAL for another 30 min at RT in Nunc™ MicroWell™ 96-well plates (Thermo Fisher Scientific cat #167008) (final reaction volume, 530 μL). The samples were UV-irradiated (365 nm) for 20 min at 4° C. After UV-irradiation, the samples were split in two different samples containing 3 μg or 50 μg of protein.
Protein samples (3 μg protein) were adjusted to 1% SDS and 10 mM DTT. After incubation for 1 h at 56° C., protein samples were treated with 30 mM iodoacetamide for 45 min at RT in the dark. Dry acetone (9 volumes) prechilled to −20° C. was added and the cloudy mixture was vortexed thoroughly and incubated at −20° C. overnight. After centrifugation (15,000×g for 10 min at 4° C.), the supernatants were poured off and the remaining pellets washed with −20° C. acetone. […] After removing the supernatants, the protein pellets were air-dried and dissolved in laemmli buffer, heated at 60° C. for 20 minutes and analyzed by in gel fluorescence scanning […]
Peptides were analyzed by nanoLC-MS/MS with the Ultimate 3000 RSLC (Thermo Fisher Scientific) coupled online to a Q-Exactive Plus mass spectrometer with a NanoFlex source. […]

[2] = tested on: Dorsal root ganglion (DRG) neurons; test: Cell-binding fluorescence on cultured DRG neurons, paclitaxel neuropathy model; format: cell-based; conditions: DRG neurons from paclitaxel-treated vs untreated mice; probe 5 μM (FIG. 1)
Protocol: The cell-binding fluorescence protocol can be briefly described as follows. […] Model of chemotherapy-induced peripheral neuropathy was generated using paclitaxel in female C57/B16 mice—[…] Paclitaxel or vehicle (10 ml/kg body weight) injected intravenously (i.v.) on day 1, day 3 and day 5. Mechanical allodynia was confirmed using von Frey (VF) filaments 9 days after starting vehicle or paclitaxel treatment (left and right paws). Each of the ten C57/B16 mice (vehicle control and paclitaxel treated) were euthanized by CO2 inhalation and individually dissected.
L5-L6 DRGs were rapidly dissected and placed in Petri dishes containing dissection medium. Meninges were removed.
Each DRG pool was successively: • incubated in dissociation buffer (0.5 mg/ml Dispase, 2.5 mg/ml collagenase, 6 mg/ml BSA, 10 mM HEPES) for 30 min at 37° C. under gentle agitation at 800 rounds/min; • washed; • triturated in culture medium and filtered on a 40 μm filter; • re-suspended in 1 ml culture medium supplemented with nerve growth factor (NGF) 250 ng/ml.
Dissociated cells from each pool were counted, seeded on Poly-D-Lysin- and Laminin-coated μ slides at the density of 4×10^4 cells/well and incubated at 37° C. 5% CO2. The medium was changed daily for 3 days. […]

LAT9991-PAL: cyclic peptide of SEQ ID NO:12 (LAT9991) conjugated to the PAL (Photo-Activated Labelling) grouping (CRSVEGSCG; disulfide 1-8 (inferred); also: PAL group on N-terminal Cys-Arg part)
Modified LANCL1 peptide sequence differentially detected ([1]; 25 μM probe, dependent peptide MS analysis): IDPHAPNEM(ox)LYGR | Most likely site for localization of the probe adduct on LANCL1 ([1]; amino acid residues 171-174 of human LANCL1 (SEQ ID NO:56)): PNEM | Binding of PAL probe to DRG neurons [2]: can be seen in DRG neurons from mice treated with paclitaxel (neuropathic pain model), but not in control untreated mice; also recorded: only to neurons from treated and neuropathic animals
